The target of assay [1] is T1, VEGF-121-His (inhouse production) (human, UniProt P15692 207-395).
T1 construct: also called hVEGF-A121; VEGF-A121; not shown: His tag
T1 sequence: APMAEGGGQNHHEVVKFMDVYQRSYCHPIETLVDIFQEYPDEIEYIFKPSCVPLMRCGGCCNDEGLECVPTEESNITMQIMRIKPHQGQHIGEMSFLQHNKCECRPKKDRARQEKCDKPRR
The experiment in a line: inhibition ELISA: antibody pre-incubated with 0.34 nM VEGF-121-His, binding to coated biotinylated VEGF-R1 detected. As to the method: 384 well streptavidin plates (Nunc/Microcoat #11974998001) were coated with 0.25 μg/mlbiotinylated VEGF-R1 or […] biotinylated VEGF-R2 (inhouse production, each 25 μl/well in DPBS (1×) (PAN, #PO4-36500)). Plates were incubated for 1 h at room temperature. […] This pre-incubation step was carried out in 384 well PP plates (Weidmann medical technology, #23490-101) in 1×OSEP buffer (bidest water, 10×, Roche, #11 666 789 001+0.5% Bovine Serum Albumin Fraction V, fatty acid free, Roche, #10 735 086 001+0.05% Tween 20). Plates were incubated for 1 h at room temperature. After washing VEGF-R1/VEGF-R2 coated streptavidin plates 3 times with 90 μl/well PBST-buffer (bidest water, 10×PBS Roche #11666789001+0.1% Tween 20), 25 μl of samples from the VEGF-antibody pre-incubation plate were transferred to coated strepavidin plates which were subsequently incubated for 1 h at room temperature. After washing 3 times with 90 μl/well PBST-buffer, 25 μl/well detection antibody (anti His POD, Bethyl, #A190-114P, 1:12000) in 1×OSEP was added. After incubation for 1 h at room temperature plates were washed 3 times with 90 μl PBST-buffer. 25 μl TMB (Roche, #11 835 033 001) was added to all wells simultaneously. After 10 min incubation at room temperature, signals were detected at 370 nm/492 nm on a Tecan Safire 2 Reader. […]
On the technique in general: ELISA stands for enzyme-linked immunosorbent assay.

For assay [2], the target named is T1, VEGF-121-His (inhouse production). The experiment in a line: SPR, hVEGF-A121 captured by anti-His antibody, Fab as analyte, 25 C; 25 C; Table 3 (later example). The protocol:
(§1) An anti-His capturing antibody (GE Healthcare 28995056) was immobilized to a Series S Sensor Chip C1 (GE Healthcare 29104990) using standard amine coupling chemistry resulting in a surface densitiy of 500-1000 resonance units (RU). As running and dilution buffer, HBS-P+(10 mM HEPES, 150 mM NaCl pH 7.4, 0.05% Surfactant P20) was used, the measurement temperature was set to 25° C. and 37° C., respectively. hVEGF-A121 was captured to the surface with resulting capture levels ranging from 5 to 35 RU. Dilution series of anti-VEGF antibodies (0.37-30 nM) were injected for 120 s, dissociation was monitored for at least 600 s at a flow rate of 30 μl/min. The surface was regenerated by injecting 10 mM Glycine pH 1.5 for 60 s. Bulk refractive index differences were corrected by subtracting blank injections and by subtracting the response obtained from the control flow cell without captured hVEGF-A121. Rate constants were calculated using the Langmuir 1:1 binding model within the Biacore Evaluation software.
(§2) The affinity of the antibodies was determined by SPR using the same methods as described in Example 1.
A general note: SPR reads the build-up and loss of mass on a sensor chip optically.

The target is the same in assay [3]. The experiment in a line: SPR, hVEGF-A121 captured by anti-His antibody, Fab as analyte, 37 C. The protocol:
as §1, §2

Assay [4] has the same target. The experiment in a line: SPR (Biacore), hVEGF-A121 captured by anti-His antibody on C1 chip, Fab as analyte, 1:1 Langmuir model, 25 C; 25 C; Example 1. As to the method: VEGF-binding of antibody VEGF-0089 Fab fragment was assessed by surface plasmon resonance (SPR) as described below.
as §1

Assay [5] shares this target. The experiment in a line: SPR, hVEGF-A121 captured by anti-His antibody, Fab as analyte, 25 C. As to the method:
as §1, §2

Changes are numbered by the printed parent chain. Names may count otherwise.

In general, Kd refers to the free concentration of one partner at which half of the binding sites on the other are occupied at equilibrium, for simple one-to-one binding. A high value points to weaker binding.

B1: VEGF-P1AD8674 Fab (Fab, V domains shown)
VH: EVQLVESGGGLVQPGGSLRLSCAASGFTFTNYAMTWVRQAPGKGLEWVSSIGNGGGIYTYYADSVKGRFTISRNNAENTLYLQMNSLRAEDTAVYYCAKGDNLFDSWGPGTLVTVSS
VL: DIQMTQSPASLSASVGDRVTITCRASQSIYSSLNWYQQKPGKAPKLLIYASTLQSGVPSRFSGSASGTDFTLTISSLQPEDVATYYCQQYQNFPRTFGQGTKLEIKR
notes: Variant of VEGF-0089 with D72N, S74A, K75E (Kabat) in H-FR3
As for B1, the binding result in assay [1] is given as “binds”.

B2: VEGF-0089 Fab fragment (Fab, V domains shown)
VH: B1 VH with N74D, A76S, E77K
VL: B1 VL
notes: Parent antibody; also called antibody VEGF-0089
Take B2: the Kd in assay [2] is 0.143 nM; in assay [3], 0.11 nM; in assay [4], 0.134 nM.

B3: VEGF-0112 Fab (Fab, V domains shown)
VH: B1 VH with N53S, N74D, A76S, E77K
VL: B1 VL
notes: Variant of VEGF-0089 with N52aS (Kabat) in H-CDR2
For the molecule B3, the figures for the Kd in assay [3] and in assay [5] were 0.085 nM and 0.074 nM, respectively.

For the origin of these results see patent US20220002397A1 (Hoffmann-La Roche, published 2022).
